Assay results taken from the supplement of paper PMC11865577.

Legend:
Experiment in all cases: pull-down binding Z-score (relative to library population); higher = stronger binding
Details in all cases: RNA library: Library-2
[1] = test system: TO-N3-2 (biotin conjugate)
In short: (§1)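 Heat-folded RNA library (1 μg, Cy5 or Cy3 end label, phosphate/NaCl/KCl buffer) was captured for 60 min at 25 °C on streptavidin beads displaying 100 pmol of biotin-conjugated small molecule, then washed three times. The bound fraction, eluted in hot SDS, was hybridised to a DNA barcode microarray at 55.5 °C for 20 h. Z-scores for binding were taken against the library mean and standard deviation after beads-only subtraction and trimmed averaging of replicate barcoded probes.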

[2] = test system: TO-3-N3 (biotin conjugate)
In short: as §1

[3] = test system: TO-3-N3-2 (biotin conjugate)
In short: as §1

[4] = test system: TO-N3 (biotin conjugate)
In short: as §1

Sequence	pull-down binding Z-score [1]	pull-down binding Z-score [2]	pull-down binding Z-score [3]	pull-down binding Z-score [4]
GAUCAGUUUCACCUAAACUGUUC	-1.08	-1.06	-0.626	-1.46
UGGCAUUAAUGCUUCAGUUGUAAACAUUCAAAAAGAAAUUGACCGCCUCAAUGAGGUUGCCA	-0.663	-0.964	-0.207	-1.1
GCUAUCUAACCUUAACUUGCCUGGUUGUGAUGGU [SHAPE_invivo_SARS-CoV-2_Motif_361]	0.466	0.68	0.311	0.716
CUGUUAAUGUAGCAUUUGAGCUUUGGGCUAAGCGCAACAUUAAACCAG	0.335	0.0322	-0.268	0.38
UAGGCACGGCACUUGUGAAAGAUCAGAAGCUGGUGUUUG	0.362	-0.0752	-0.246	0.0405
GCAGACGGGCGAUUUUGUUAAAGCCACUUGC	1.57	0.648	0.604	0.889
GGCAACUAGCACUCUCCAAGGGUGUUCACUUUGUUUGCAACUUGCUGUUGUUGUUUGUAACAGUUUACUCACACCUUUUGCUCGUUGCU [SHAPE_invitro_SARS-CoV-2_Motif_465]	-0.0997	-0.318	-0.205	-0.358
UGGGGUUGGGGUUGGGGUUGGGGUUGGGGUUGGGGUUGGGGUUGGGGU [G4_r(UGGGGU)8]	4.93	7.69	8.63	6.59
UGAUUUUUGUGGAAAGGGCUAUCAUCUUAUGUCCUUCCCUCAGUCA [SHAPE_invivo_SARS-CoV-2_Motif_462]	-0.49	-0.662	-0.0472	-0.702
GAACCUUGCUCUUCUGGAACAUACGAGGGCAAUUC	-0.153	0.401	-0.0628	0.239
UCCGAUUUACAGGA [DMSMaPseq_invitro_SARS-CoV-2_Motif_227]	-0.256	-0.342	-0.0117	-0.272
CAGGUAUGAAUGAUACUUACCUG [U1snRNP5ss-11]	0.225	1.06	0.369	0.898
CAUCAACCAUAUGUAGUUGAUG	-1.15	-0.47	-0.283	-0.872
ACAACAACCAUAAAACCAGUUACUUAUAAAUUGGAUGGUGUUGU	-1.37	-0.686	-0.38	-1.03
AACCCUCACCUUAUGGGUU	-1.48	-0.558	-0.745	-0.946
AGGUCCAGACAUGUUCCUCGGAACUUGUCGGCGUUGUCCU	0.332	-0.757	-0.441	-0.838
GUGCAGAAUGAAUUCUCGUAACUACAUAGCACAAGUAGAUGUAGUUAACUUUAAUCUCAC	-0.275	-0.768	-0.202	-0.646
UAAUGGUUUAACUUCUAUUA [DMSMaPseq_invitro_SARS-CoV-2_Motif_100]	-1.37	-0.945	-0.395	-1.33

Sequence	pull-down binding Z-score [1]	pull-down binding Z-score [2]	pull-down binding Z-score [3]	pull-down binding Z-score [4]
AUGGUGCUAACAAAGACGGCAUCAU [SHAPE_invivo_SARS-CoV-2_Motif_545]	-0.639	0.0674	-0.105	-0.143
GGGUCGGUUGCUCACAAGUCCUGCCUGCCUGCCU [IAV_invivo_NP_5_Motif_15+IAV_invivo_NP_5_Motif_15]	1.7	0.283	0.184	0.865
CCUAAUGGAUGG [IAV_invivo_NA_6_Motif_15+IAV_invivo_NA_6_Motif_15]	-0.501	-0.555	-0.746	-0.777
UAGAGUGCUAUCUA [SHAPE_invitro_SARS-CoV-2_Motif_352]	-0.86	-0.809	-0.553	-0.957
ACAUCAGCUUGUGUUUUGGCUGCUGAAUGU	-0.485	-0.623	-0.534	-0.774
AACAUUUACUUAUGCAUCAGCAUUGUGGGAAAUCCAACAGGUUGUAGAUGCAGAUAGUAAAAUUGUU [DMSMaPseq_invitro_SARS-CoV-2_Motif_222]	-0.134	0.159	-0.0746	-0.126
GCAAAUUAAUGC	-1.25	-0.689	-0.864	-1.04
CAGAGUACUCAAUGGUCUUUG	-0.606	-0.33	-0.543	-0.395
ACAGGUUUUAUCGAACCUGU [IAV_invivo_PB1_2_Motif_25+IAV_invivo_PB1_2_Motif_25]	-1.54	-0.147	-0.571	-0.828
UGGUGUUAGAAGGUCCUUUUAUGUCUAUGCUAAUGGAGGUAAAGGCUUUUGCAAACUA [SHAPE_invitro_SARS-CoV-2_Motif_149]	-0.562	-0.638	-0.276	-0.58
UCUGCCUAUACAGUUGAACUCGGUACAGAAGUAAAUGAGUUCGCCUGUGUUGUGGCAGA [SHAPE_invivo_SARS-CoV-2_Motif_57]	1.36	-0.71	-0.334	-0.415
ACAGUAUGUCUUUUGUACUGU	-1.28	-0.159	-0.336	-0.525
UGUACAUACAGCUAAUAAAUGGGAUCUCAUUAUUAGUGAUAUGUACG [DMSMaPseq_invitro_SARS-CoV-2_Motif_370]	-0.223	-0.362	-0.188	-0.461
CCUAUCAAUGG [IAV_invivo_PB2_1_Motif_26+IAV_invivo_PB2_1_Motif_26]	-0.376	0.191	-0.212	0.11
UGGGGUUGGGGUUGGGGUUGGGGUUGGGGUUGGGGU [G4_r(UGGGGU)6]	4.95	7.92	8.72	6.75
GGGACUGAGAAUUAGCUCAUCCU [IAV_invivo_PB2_1_Motif_14+IAV_invivo_PB2_1_Motif_14]	0.208	-0.573	-0.318	-0.536
GGUGGUAUUGUAGCUAUCGUAGUAACAUGCCUUGCC	0.0259	0.56	-0.0179	0.693
